These results are taken from patent US20170056486A1.

This assay deals with HLA-A*24 (human). Briefly: UV-exchange ELISA (anti-b2m); yield 50%-75%. (In an ELISA, binding on a coated surface is turned into a signal by an enzyme label.)
Turning to IFGIFPNQF, the peptide exchange yield is 50 to 75%.

Regarding VYPFENFEF, the peptide exchange yield was 50 to 75%. On to IYLSDLTYI, for which the peptide exchange yield is 50 to 75%. AYIPTPIYF displayed a peptide exchange yield of 50 to 75%. In the case of VYVQILQKL it was 50 to 75%; in that of EYLDRIGQLFF, 50 to 75%. In turn, SYNGHLTIWF registered a peptide exchange yield of 50 to 75%. To NYIPVKNGKQF belongs 50 to 75%; to KYIFQLNEI, 50 to 75%; to KYLNSVQYI, 50 to 75%.

QYFTGNPLF came in with a peptide exchange yield of 50 to 75%. In turn, VFSRDFGLLVF returned a peptide exchange yield of 50 to 75%.

Molecule IYNFVESKL showed a peptide exchange yield of 50 to 75%. In the case of IYNETITDLL, the peptide exchange yield lay within 50 to 75%. For the molecule IYNETVRDLL, the peptide exchange yield was in the range of 50 to 75%. In the case of RYLNKSFVL it was 50 to 75%; in that of VYRVYVTTF, 50 to 75%; in that of EYQARIPEF, 50 to 75%. To KYFPYLVVI belongs 50 to 75%; to IYPEWPVVFF, 50 to 75%; to VFPRLHNVLF, 50 to 75%. SYPKIIEEF came in with a peptide exchange yield of 50 to 75%. PYLVVIHTL registered a peptide exchange yield of 50 to 75%. With RYGLPAAWSTF, the peptide exchange yield was in the range of 50 to 75%. KYLEDMKTYF: the peptide exchange yield fell in the range of 50 to 75%.

On to VYIESRIGTSTSF, for which the peptide exchange yield was in the range of 50 to 75%. In the case of IYSFHTLSF it was 50 to 75%.
